Substitutions are numbered along the chain they refer to.
B1: 5H10 VH0/VK0 (chimeric) (antibody, V domains shown)
VH: QVQLQQSGAELVRPGSSVKISCKSSGYAFSSYWMNWVKQRPGQGLEWIGQIYPGDGDTHYNGKFKGKATLTADKSSSTAYMQLSRLTSEDSAVYFCSSSNWVGSYWGQGTLVTVSA
VL: not shown
notes: also called chimeric 5H10
B2: humanized 5H10 VH2/VK3 (antibody, human IgG4, V domains shown)
VH: B1 VH with Q5V, L11V, V12K, R13K, S76T, Q82E, R85S, T87R, S91T, A116S
VL: DVVMTQSPLSLPVTLGQPASISCKSSQSLLESDGKTYLNWLQQRPGQSPRRLIYLVSRLDSGVPDRFSGSGSGTDFTLKISRVEAEDVGVYYCWQGTHLPQTFGGGTKVEIK
notes: Only variable domains are tied to the name; Humanized from the chimeric antibody, which has a human IgG4 backbone and a kappa light chain
B3: humanized 5H10 VH3/VK2 (antibody, human IgG4, V domains shown)
VH: QVQLVQSGAEVKKPGSSVKVSCKSSGYAFSSYWMNWVRQRPGQGLEWIGQIYPGDGDTHYNGKFKGKATLTADKSTSTAYMELSSLRSEDTAVYFCSSSNWVGSYWGQGTLVTVSS
VL: B2 VL with S68T
notes: as for B2
B4: humanized 5H10 VH4/VK2 (antibody, human IgG4, V domains shown)
VH: B3 VH with K67R, A68V, L70I
VL: B2 VL with S68T
notes: as for B2
B5: humanized 5H10 VH3/VK3 (antibody, human IgG4, V domains shown)
VH: B3 VH
VL: B2 VL
notes: as for B2
B6: humanized 5H10 VH1/VK3 (antibody, human IgG4, V domains shown)
VH: B3 VH with V11L, V20I, R38K, R87T, T91S
VL: B2 VL
notes: as for B2
B7: humanized 5H10 VH4/VK3 (antibody, human IgG4, V domains shown)
VH: B3 VH with K67R, A68V, L70I
VL: B2 VL
notes: as for B2
B8: murine 5H10 antibody (antibody, V domains shown)
VH: B1 VH
VL: not shown
notes: Mouse hybridoma monoclonal with a kappa light chain; It was conjugated to a fluorescent marker for flow cytometry and to pHrodo red for the internalisation assay; also called OpSCF; m5H10

biological target: T1, human stem cell factor isoform SCF248 (hSCF248) (human, UniProt P21583 26-273); test: binding score on Sl/Sl4 hSCF248 cells
T1 construct: also called soluble SCF
T1 sequence (P21583 26-273 limits assumed): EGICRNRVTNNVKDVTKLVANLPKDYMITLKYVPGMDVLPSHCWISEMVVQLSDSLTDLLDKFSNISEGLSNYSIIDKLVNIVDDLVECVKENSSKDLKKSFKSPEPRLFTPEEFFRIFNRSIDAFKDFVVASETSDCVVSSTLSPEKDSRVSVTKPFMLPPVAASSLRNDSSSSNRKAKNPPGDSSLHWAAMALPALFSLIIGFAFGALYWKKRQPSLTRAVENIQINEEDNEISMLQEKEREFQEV

| binding result | Binder |
| --- | --- |
| binds | B1 |
| binds | B2 |
| binds | B3 |
| binds | B4 |
| binds | B5 |
| binds | B6 |
| binds | B7 |

biological target: T1, human stem cell factor isoform SCF248 …; test: flow cytometry, directly labelled antibody on Sl/Sl4 hSCF248 cells
Description: Binding of the labeled antibody to the cells was assessed by flow cytometry.

| binding result | Binder |
| --- | --- |
| binds | B8 |

From patent publication US20220324957A1 (OPSIDIO, published 2022)
